# Measured values from patent publication US9028816 (Ablynx, dated 2015).
# B1: 3P1-31 (VHH)
# VHH: QVQLQESGGGLVQAGGSLRLSCAASGRTFRRYAMGWYRQAPGKQRELVAAITSGGRTSVADTVKGRFTISSDNAKNTVYLQMNSLKPEDAAVYYCTLYNSTTNYYNQSPSSWGQGTQVTVSS
# B2: Z29 (VHH)
# VHH: QVQLQESGGGSVQAGDSLTLSCAASGRTFSMHAMGWFRQAPGKEREFVAAISPSAFTEYADSLKGRFTVSRDNAKKLVWLQMNGLKPEDTAAYYCAARRGAFTATTAPLYDYWGQGTQVTVSS
# B3: MSA24 (VHH)
# VHH: QVQLQESGGGLVQPGNSLRLSCAASGFTFRNFGMSWVRQAPGKEPEWVSSISGSGSNTIYADSVKDRFTISRDNAKSTLYLQMNSLKPEDTAVYYCTIGGSLSRSSQGTQVTVSS
# B4: 3L-41 (VHH)
# VHH: QVQLQDSGGGLVQAGGSLRLSCAASGRTFRRYAMGWYRQAPGKQRVLVAAITSNGRPSVADSVKGRFTISSDTAKNTVYLQMNSLKPEDTALYYCTLYNTSADYYNQSPSSWGQGTQVTVLS
# Assays:
# collagen type I = molecular target: T1, collagen type I; experiment: ELISA: collagen type I coated at 25 µg/ml, purified VHH in twofold dilutions, detection as in Example 7 (Example 34) [collagen type I]
# T1 construct: coated on the microtiter plate
# [1] = molecular target: T2, human von Willebrand factor (vWF) (human, UniProt P04275 764-2813); experiment: ELISA: coated vWF, purified vWF A1-specific VHH, as in Example 7 (Example 20)
# T2 construct: also called Human vWF
# [2] = molecular target: human serum albumin (HSA) (human, UniProt P02768 25-609); experiment: phage on blotted plasma (1/10)
# pig serum albumin = pig serum albumin (pig, UniProt P08835 25-607); experiment: phage on blotted plasma (1/10)
# [3] = molecular target: T3, mouse serum albumin (MSA) (mouse, UniProt P07724 25-608); experiment: ELISA: MSA coated at 5 µg/ml, purified nanobody in 1/3 dilutions, detection with rabbit anti-nanobody serum and anti-rabbit alkaline phosphatase, PNPP (Example 50)
# T3 construct: also called mouse albumin
# T3 sequence (P07724 25-608 limits assumed): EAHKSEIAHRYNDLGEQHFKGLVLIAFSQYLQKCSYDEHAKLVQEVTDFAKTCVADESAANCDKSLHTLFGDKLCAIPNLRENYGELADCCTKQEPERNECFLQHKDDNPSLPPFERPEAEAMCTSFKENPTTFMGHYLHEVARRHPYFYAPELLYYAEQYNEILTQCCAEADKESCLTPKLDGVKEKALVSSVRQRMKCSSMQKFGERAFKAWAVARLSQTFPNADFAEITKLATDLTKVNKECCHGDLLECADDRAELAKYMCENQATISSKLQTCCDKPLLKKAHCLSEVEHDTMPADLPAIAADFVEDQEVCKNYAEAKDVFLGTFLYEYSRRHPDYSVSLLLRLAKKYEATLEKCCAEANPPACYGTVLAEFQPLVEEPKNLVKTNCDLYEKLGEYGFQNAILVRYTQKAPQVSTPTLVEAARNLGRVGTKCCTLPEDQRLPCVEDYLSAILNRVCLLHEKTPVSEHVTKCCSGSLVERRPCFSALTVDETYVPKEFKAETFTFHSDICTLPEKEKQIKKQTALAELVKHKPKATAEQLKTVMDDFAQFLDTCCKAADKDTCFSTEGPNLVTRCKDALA
# Sequence of pig serum albumin (P08835 25-607 limits assumed): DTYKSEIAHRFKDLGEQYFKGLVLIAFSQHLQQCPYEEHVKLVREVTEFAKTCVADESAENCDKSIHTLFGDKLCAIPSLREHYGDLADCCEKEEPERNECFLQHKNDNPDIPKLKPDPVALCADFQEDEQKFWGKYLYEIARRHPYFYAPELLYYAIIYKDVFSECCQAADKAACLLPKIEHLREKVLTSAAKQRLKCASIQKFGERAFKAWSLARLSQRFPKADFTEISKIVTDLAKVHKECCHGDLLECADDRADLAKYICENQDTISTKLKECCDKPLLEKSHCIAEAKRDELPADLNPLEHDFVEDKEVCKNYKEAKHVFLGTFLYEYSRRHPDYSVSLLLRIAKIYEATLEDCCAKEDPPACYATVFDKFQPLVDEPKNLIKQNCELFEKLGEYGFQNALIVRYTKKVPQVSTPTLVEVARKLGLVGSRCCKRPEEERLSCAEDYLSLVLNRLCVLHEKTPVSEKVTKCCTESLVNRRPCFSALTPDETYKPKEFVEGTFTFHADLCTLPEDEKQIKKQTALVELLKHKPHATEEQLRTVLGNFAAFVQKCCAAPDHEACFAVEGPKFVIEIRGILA
binder,measurement,setting,value
B1,EC50 (read off the curve),collagen type I,~200 nM
B2,EC50 (read off the curve),[1],~70 nM
B3,binding result,[2],binds
same,binding result,pig serum albumin,binds
same,EC50 (read off the curve),[3],~0.6 nM
B4,EC50 (read off the curve),collagen type I,~10 nM
